Experimental data published in patent US20150093336A1 (VIB VZW, published 2015).
Values belong to the binder of their own block, whether it stands above or below them.

Legend:
[1] = target: T1, Mouse macrophage mannose receptor (MMR) expressed on tumor-associated macrophages of 3LL-R tumors (mouse, UniProt Q61830 20-1456); test: flow cytometry on CD11b+ Ly6G- TAMs of 3LL-R tumors gated on MHCII, HA-tagged Nb detected with Alexa Fluor 488 anti-HA
T1 construct: Endogenous receptor on ex vivo isolated CD11b+ Ly6G- TAMs (flow cytometry) and in mouse organs (biodistribution); also called mouse MMR; mMMR
T1 sequence: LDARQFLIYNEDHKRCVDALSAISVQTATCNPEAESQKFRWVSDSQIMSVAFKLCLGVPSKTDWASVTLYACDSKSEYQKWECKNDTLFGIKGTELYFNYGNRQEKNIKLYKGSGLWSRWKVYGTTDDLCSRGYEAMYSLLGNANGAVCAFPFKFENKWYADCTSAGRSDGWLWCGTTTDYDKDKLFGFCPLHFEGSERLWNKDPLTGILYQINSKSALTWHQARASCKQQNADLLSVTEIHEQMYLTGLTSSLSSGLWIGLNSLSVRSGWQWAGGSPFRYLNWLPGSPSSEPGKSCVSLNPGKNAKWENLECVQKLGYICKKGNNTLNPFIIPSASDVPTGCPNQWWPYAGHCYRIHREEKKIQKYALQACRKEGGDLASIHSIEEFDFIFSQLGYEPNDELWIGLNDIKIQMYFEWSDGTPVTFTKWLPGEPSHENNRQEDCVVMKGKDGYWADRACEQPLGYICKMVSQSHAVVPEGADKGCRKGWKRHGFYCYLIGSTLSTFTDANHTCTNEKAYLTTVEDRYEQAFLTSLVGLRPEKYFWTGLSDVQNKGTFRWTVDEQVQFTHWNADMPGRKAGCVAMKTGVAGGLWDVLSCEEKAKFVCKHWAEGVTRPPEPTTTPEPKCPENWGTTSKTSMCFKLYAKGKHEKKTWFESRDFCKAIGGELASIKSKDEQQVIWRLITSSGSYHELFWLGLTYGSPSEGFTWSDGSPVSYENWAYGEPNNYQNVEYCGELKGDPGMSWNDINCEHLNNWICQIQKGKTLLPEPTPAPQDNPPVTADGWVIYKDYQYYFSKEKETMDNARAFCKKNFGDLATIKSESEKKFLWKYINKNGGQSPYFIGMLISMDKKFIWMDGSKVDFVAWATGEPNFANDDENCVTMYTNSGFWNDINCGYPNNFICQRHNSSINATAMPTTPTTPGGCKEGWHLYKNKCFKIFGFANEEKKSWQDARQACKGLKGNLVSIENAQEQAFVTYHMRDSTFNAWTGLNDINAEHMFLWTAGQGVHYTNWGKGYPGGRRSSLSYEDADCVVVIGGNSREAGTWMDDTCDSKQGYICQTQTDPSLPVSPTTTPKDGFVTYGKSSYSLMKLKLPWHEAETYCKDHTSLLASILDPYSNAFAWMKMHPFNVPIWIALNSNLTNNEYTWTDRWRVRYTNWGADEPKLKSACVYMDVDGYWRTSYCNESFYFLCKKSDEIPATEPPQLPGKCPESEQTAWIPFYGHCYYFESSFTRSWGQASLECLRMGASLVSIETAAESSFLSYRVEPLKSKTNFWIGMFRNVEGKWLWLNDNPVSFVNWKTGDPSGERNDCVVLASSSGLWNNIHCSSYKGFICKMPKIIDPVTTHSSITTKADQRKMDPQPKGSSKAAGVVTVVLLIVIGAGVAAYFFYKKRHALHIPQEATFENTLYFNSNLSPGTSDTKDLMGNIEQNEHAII
Description: FIG. 6: MMR-specific Nbs bind to mouse MMR expressed on ex vivo isolated macrophages. 3LL-R tumors were induced by injecting 3×10⁶ cancer cells subcutaneously in C57Bl/6 mice. After 15 days of tumor growth, the tumors were isolated and single cell suspensions were prepared to be analyzed by flow cytometry. The CD11b+Ly6G tumor-associated macrophages (TAM) were further gated on MHCII expression. The histograms depict MMR expression as defined by Nb binding on MHCII^low and MHCII^high TAMs. Shaded histograms depict binding of the negative control Nb BCII10.
For examining specific binding of the anti-MMR sdAbs to mouse MMR, 3LL-R tumors were induced by injecting 3 E6 cancer cells subcutaneously in C57Bl/6 mice. After 15 days of tumor growth, the tumors were isolated, chopped and incubated for 25 minutes (37° C.) with 10 U/ml Collagenase type I, 400 U/ml Collagenase type IV, and 30 U/ml DNAseI (Worthington). Density gradients (Axis-Shield) were used to remove tissue debris and dead cells. sdAbs were added at 10 μg/ml to 1 E6 cells per tube. […] Binding profiles of anti-MMR sdAbs were recorded.

[2] = target: T2, Recombinant human MMR (R&D systems) (human, UniProt P22897 19-1383); test: PE-ELISA, periplasmic extract on coated human MMR, anti-HA detection
T2 construct: Antigen of the PE-ELISA and the SPR; also called hMMR; recombinant hMMR
T2 sequence: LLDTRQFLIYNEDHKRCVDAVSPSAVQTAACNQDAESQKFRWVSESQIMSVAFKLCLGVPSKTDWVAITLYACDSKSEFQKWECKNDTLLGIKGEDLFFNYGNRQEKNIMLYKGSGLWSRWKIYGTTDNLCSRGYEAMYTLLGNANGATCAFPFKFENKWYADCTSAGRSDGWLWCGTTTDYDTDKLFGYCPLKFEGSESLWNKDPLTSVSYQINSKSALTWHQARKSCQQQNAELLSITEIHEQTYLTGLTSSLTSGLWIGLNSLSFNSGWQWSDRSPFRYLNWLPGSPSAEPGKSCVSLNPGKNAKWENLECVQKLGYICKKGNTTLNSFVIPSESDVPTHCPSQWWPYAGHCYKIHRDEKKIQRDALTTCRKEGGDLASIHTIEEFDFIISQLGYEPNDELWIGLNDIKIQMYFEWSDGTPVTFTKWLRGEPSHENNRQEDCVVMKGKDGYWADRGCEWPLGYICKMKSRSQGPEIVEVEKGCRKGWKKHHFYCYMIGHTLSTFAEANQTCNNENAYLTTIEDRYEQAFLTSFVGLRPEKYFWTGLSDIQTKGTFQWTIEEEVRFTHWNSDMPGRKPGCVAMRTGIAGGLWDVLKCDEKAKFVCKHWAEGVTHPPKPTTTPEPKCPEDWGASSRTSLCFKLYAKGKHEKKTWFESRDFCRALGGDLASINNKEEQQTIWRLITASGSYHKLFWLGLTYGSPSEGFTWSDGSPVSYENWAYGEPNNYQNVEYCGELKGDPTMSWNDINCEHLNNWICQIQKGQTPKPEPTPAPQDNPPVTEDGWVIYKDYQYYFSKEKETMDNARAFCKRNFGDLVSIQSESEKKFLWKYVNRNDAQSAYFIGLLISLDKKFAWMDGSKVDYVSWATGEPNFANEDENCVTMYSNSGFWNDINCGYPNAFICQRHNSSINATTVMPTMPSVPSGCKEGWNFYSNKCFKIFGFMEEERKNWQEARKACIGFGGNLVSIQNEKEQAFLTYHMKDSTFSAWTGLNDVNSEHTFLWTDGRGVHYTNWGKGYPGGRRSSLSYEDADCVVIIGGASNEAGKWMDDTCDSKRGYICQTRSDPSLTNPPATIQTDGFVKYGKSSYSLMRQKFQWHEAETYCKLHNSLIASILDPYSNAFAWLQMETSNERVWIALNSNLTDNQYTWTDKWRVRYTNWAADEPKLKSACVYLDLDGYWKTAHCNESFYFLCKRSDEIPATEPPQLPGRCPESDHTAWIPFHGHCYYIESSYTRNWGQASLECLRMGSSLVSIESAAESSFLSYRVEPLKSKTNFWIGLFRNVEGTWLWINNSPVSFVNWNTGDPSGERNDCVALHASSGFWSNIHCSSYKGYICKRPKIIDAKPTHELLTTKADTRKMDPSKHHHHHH

binding result [1]: binds
B1: anti-mouse MMR sdAb clone 1 (VHH)
VHH: QVQLQESGGGLVQPGGSLRLSCAASGNIFSINAIGWYRQAPGKQRELVATITLSGSTNYADSVKGRFSISRDNAKNTVYLQMNSLKPEDTAVYYCNANTYSDSDVYGYWGQGTQVTVSS
notes: also called anti-mMMR Nb clone 1; anti-mouse MMR clone 1

binding result [2]: binds
B2: NbhMMRm4.83 (VHH)
VHH: QVQLQESGGGLVQPGGSLRLSCAASGPGFKLDYYAIAWFRQAPGKEREGVSCIGGSGSGLTTYVENSVKDRFTISRDNAQNTVYLHMNSLKPEDTGIYYCAADTYYYCSKRVWRNDYGSWGQGTQVTVSS
notes: Only tested as periplasmic extract in PE-ELISA; clone carries C-terminal HA and 6xHis tag
